This note sets out measurements from patent publication US20210238304A1.

In test [1] the target is human mesothelin (recombinant, soluble) (human) (UniProt Q13421). The experiment in a line: SPR BIAcore, parental mAb captured, mesothelin analyte.
For test [2] the target is unchanged. In words: SPR BIAcore, captured mAb, mesothelin analyte.

Values joined by “and” are separate entries in the source; they are usually repeats but may differ in a detail not shown here. Identical values can stand only once.

Chain of human mesothelin (recombinant, soluble) (human) (Q13421 other isoform, or with tags, fused parts or gaps limits assumed): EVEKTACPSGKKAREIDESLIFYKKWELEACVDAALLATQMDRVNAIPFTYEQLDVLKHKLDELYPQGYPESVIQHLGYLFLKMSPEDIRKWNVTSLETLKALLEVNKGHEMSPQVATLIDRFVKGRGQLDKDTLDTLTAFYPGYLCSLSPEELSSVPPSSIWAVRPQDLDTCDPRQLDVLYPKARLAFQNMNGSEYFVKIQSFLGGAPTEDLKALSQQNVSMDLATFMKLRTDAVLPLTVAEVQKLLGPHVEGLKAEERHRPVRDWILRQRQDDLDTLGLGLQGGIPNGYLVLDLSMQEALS

B1: 33O11 zu (humanized anti-human mesothelin antibody) (antibody, from another filing, V domains shown)
VH: EVQLVESGGGLVQPGGSLRLSCAASGISLSSDAISWVRQAPGKGLEYIGIINGGGNTYYASWAKGRFTISRHNSKNTLYLQMNSLRAEDTAVYYCARGIQHGGGNSDYYYYGMDLWGQGTLVTVSS
VL: DIQMTQSPSSLSASVGDRVTITCQASQSISSVLSWYQQKPGKAPKLLIYLASTLASGVPSRFSGSGSGTDFTLTISSLQCEDIATYYCQTNYGTSSSNYGFAFGGGTKVEIKR
Regarding B1, in test [1], the Kd was 3.4 nM, the koff was 0.00065 s⁻¹ and the kon came to 220000 M⁻¹ s⁻¹.

B2: 201C15 (rabbit-human chimeric anti-human mesothelin antibody) (antibody, from another filing, V domains shown)
VH: QSVKESGGRLVTPGTPLTLTCTVSGIDLSSYAMGWFRQAPGKGLEYIGTINIGGRVYYASWAKGRFTISRTSTTVDLKAPSLTAEDTATYFCARYYNGGSYDIWGPGTLVTVSL
VL: DVVMTQTPASASEPVGGTVTIKCQASESIYRVLAWYQQKPGQPPKLLIYDTSTLASGAPSRFKGSGYGTEFTLTISGVQCEDAATYYCQGGYYADSYGIAFGGGTEVVVKR
As for B2, in test [1], the Kd was determined as 1.1 nM, the koff was determined as 0.00026 s⁻¹ and the on-rate constant (kon) was 240000 M⁻¹ s⁻¹. Further, in test [2], the dissociation constant (Kd) was 0.47 nM and 0.131 nM; the koff is 0.000129 s⁻¹ and 0.000345 s⁻¹.

B3: 346C6 (rabbit-human chimeric anti-human mesothelin antibody) (antibody, from another filing, V domains shown)
VH: QSVEESGGRLVKPDESLTLTCTASGFSLSSYAMIWVRQAPGEGLEWIGTISTGGITYYASWAKGRFTISKTSTTVDLKITSPTTEDTATYFCARGGYAASSAYYLPYYFDLWGQGTLVTVSS
VL: AAVLTQTPSPVSAAVGGTVTISCQSSQSVYNNNNLAWFQQKPGQPPKLLIYLASTLASGVPSRFSGSGSGTQFTLTISGVQCDDAATYYCLGGCDDDADTFAFGGGTEVVVKR
As to B3, in test [1], the Kd came to 1.4 nM, the koff came to 0.00049 s⁻¹ and the kon was determined as 380000 M⁻¹ s⁻¹. For the same molecule, in test [2], the Kd was 0.706 nM and 0.529 nM; the koff was 0.000481 s⁻¹ and 0.000609 s⁻¹; the on-rate constant (kon) is 682000 M⁻¹ s⁻¹ and 1.15e+06 M⁻¹ s⁻¹.

B4: 111B10 (rabbit-human chimeric anti-human mesothelin antibody) (antibody, from another filing, V domains shown)
VH: QSVEESGGRLVTPGTPLTLTCTVSGFSLNNYAMSWVRQAPGKGLEWIGSISTGGLAFYANWAKGRFTISRTSTTVDLKMTSLTTEDTATYFCGRNGGGSYIFYYFDLWGQGTLVTVSS
VL: AFELTQTPSSVEAAVGGTITIKCQASQSISSYLSWYQQKPGQPPKLLIYSASTLASGVSSRFKGSGSGTEYTLTISDLECADAATYFCQSYYDIGTSTFGGGTEVVVKR
Regarding B4, in test [1], the dissociation constant Kd was found to be 6.3 nM, the koff worked out at 0.0039 s⁻¹ and the kon came out at 650000 M⁻¹ s⁻¹.
